The source of these data is paper PMC3260234.

The target of data set [1] is T1, OxyS (Mycobacterium tuberculosis) (UniProt L7N677).
T1 sequence: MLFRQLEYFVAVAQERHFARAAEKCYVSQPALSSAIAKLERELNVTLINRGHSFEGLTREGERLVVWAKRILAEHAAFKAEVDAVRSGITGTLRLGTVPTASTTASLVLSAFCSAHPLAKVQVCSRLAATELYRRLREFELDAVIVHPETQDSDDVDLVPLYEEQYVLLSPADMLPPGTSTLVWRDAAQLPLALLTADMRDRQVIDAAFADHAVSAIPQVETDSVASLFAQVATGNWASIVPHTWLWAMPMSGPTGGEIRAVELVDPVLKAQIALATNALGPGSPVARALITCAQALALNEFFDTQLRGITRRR
The experiment in a line: EMSA. To be noted: 20 mM Tris-HCl pH 7.5, 100 mM NaCl, 2 mM EDTA, room temperature 20 min. (In general: In EMSA bound probe runs differently from free probe, usually more slowly.)

The target in data set [2] is T1, OxyS (Mycobacterium tuberculosis). The experiment in a line: competition. To be noted: 20 mM Tris-HCl pH 7.5, 100 mM NaCl, 2 mM EDTA, room temperature 20 min.
Data set [3] deals with T2, OxyS (Mycobacterium tuberculosis, UniProt L7N677 1-314).
T2 sequence: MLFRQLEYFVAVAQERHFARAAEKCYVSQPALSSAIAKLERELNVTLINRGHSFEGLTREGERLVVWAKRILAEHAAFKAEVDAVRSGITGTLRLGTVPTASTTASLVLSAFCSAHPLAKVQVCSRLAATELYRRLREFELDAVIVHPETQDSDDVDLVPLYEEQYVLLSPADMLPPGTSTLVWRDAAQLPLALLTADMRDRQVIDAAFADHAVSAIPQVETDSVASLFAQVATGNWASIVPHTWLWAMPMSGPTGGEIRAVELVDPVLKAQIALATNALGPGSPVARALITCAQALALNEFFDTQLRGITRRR
The experiment in a line: EMSA; 0-300 nM OxyS; 20 mM Tris-HCl pH 7.5, 100 mM NaCl, 2 mM EDTA, room temperature 20 min; […]. To be noted: protein: recombinant; tags: 6xHis (pET28a); chain copies: 4; label: 5'-FITC on forward strand; blunt.

As for “TCGACATCGGCGATAACCCCGCAAGACCGGCAGACGATGTGATGGTGGTTGTCGCCGACCCTGGACTCGTAGCGCGCGACGGAGCCCGAGGGTTGGATCTTTCGCACCAAGCCCGCGGCGGTCAGGGCATGCAGCACGTCGTACACGGCTTGCCGGGATACGTCGGGCAGCGCAAAACGC (double strand) [katGp1]”, the binding entry in data set [1] and in data set [2] was “no binding” throughout.
In the case of “CCGATGTCGACTGTGCTGTTGGCGAGGCACCCTGTCTGACGGCCTCGGACCATAACGGCTTCCTGTTGGACGAGGCGGAGGTCATCTACTGGGGTCTATGTCCTGATTGTTCGATATCCGACACTTCGCGATCACATCCGTGATCACAGCCCGATAACACCAACTCCTGGAAGGAATGCT (double strand) [katGp2]”, the binding result in data set [1] and in data set [2] was “binds” in each case.

B1: OxyS box1 (dsDNA)
DNA 1: TGTCTGACGGCCTCGGACCAT
DNA 2: ATGGTCCGAGGCCGTCAGACA
In the case of B1, the binding result in data set [3] is reported as “binds”.

B2: OxyS box1mut (dsDNA)
DNA 1: TGTCCCACGGCCTCGCCCCAT
DNA 2: ATGGGGCGAGGCCGTGGGACA
In the case of B2, the binding result in data set [3] was “no binding”.
